The target in experiment [1] is T1, human ephrin-A4 (human, UniProt P52798).
T1 chain: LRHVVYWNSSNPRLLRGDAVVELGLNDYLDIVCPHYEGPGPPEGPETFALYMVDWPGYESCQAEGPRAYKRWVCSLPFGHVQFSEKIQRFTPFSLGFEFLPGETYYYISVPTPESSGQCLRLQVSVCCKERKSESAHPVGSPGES
Briefly: FACS. For orientation: In flow cytometry, cells or beads pass a laser one at a time.

Experiment [2] addresses T1, human ephrin-A4. Briefly: SPR. (In general: Surface plasmon resonance follows binding to a sensor surface in real time, without labels.)

B1: EphB4-Fc (protein)
chain: LEETLLNTKLETADLKWVTFPQVDGQWEELSGLDEEQHSVRTYEVCDVQRAPGQAHWLRTGWVPRRGAVHVYATLRFTMLECLSLPRAGRSCKETFTVFYYESDADTATALTPAWMENPYIKVDTVAAEHLTRKRPGAEATGKVNVKTLRLGPLSKAGFYLAFQDQGACMALLSLHLFYKKCAQLTVNLTRFPETVPRELVVPVAGSCVVDAVPAPGPSPSLYCREDGQWAEQPVTGCSCAPGFEAAEGNTKCRACAQGTFKPLSGEGSCQPCPANSHSNTIGSAVCQCRVGYFRARTDPRGAPCTTPPSAPRSVVSRLNGSSLHLEWSAPLESGGREDLTYALRCRECRPGGSCAPCGGDLTFDPGPRDLVEPWVVVRGLRPDFTYTFEVTALNGVSSLATGPVPFEPVNVTTDREVPPAVSDIRVTRSSPSSLSLAWAVPRAPSGAVLDYEVKYHEKGAEGPSSVRFLKTSENRAELRGLKRGASYLVQVRARSEAGYGPFGQEHHSQTQLDESEGWREQLA
As to B1, in experiment [1], the binding result was “no binding”.

B2: SC4.47 (antibody, V domains shown)
VH: EVQLQQSGPELVKPGASVKISCTASGYTFTYFYMNWVKQSQGKSLEWVGQINPNNGGTAYNHKFRGKTTLTVDKSSNTAFMELRSLTSEDSAVYFCARWVGTHYFDYWGQGTTLTVSS
VL: DIVLTQSPASLPVSLGQRATISCRASQSVSSSSYTYIHWYQQKPGQPPKLLINFASNLESGVPARFSVSGSGTDFTLNIHPVEGEDTATYYCQHSWEIPPTFGGGTKLEIK
B2 displayed a dissociation constant (Kd) in experiment [2] of 1.1 nM.

In general, Kd refers to a measure of binding affinity in units of concentration. A low value points to tighter binding.

These data come from US9320812.
